Legend:
Assay in all cases: ELISA, lysate on plate-bound antigen
[1] = target: human serum albumin (human) (UniProt P02768)
[2] = target: unrelated Fc-fused recombinant protein
[3] = target: T1, recombinant biotinylated PD-L1 (rhPD-L1/Fc Chimera, R&D Systems 156-B7) (human, UniProt Q9NZQ7 19-238, biotinylated (sites not given))
T1 construct: Bought Fc chimera; also called human PD-L1
Experimental: Streptavidin-coated Maxisorp plates (Nunc catalog 436110) were blocked for 1 h in Starting Block T20 (Pierce) and then coated with biotinylated PD-L1 (using same antigen as in panning) or negative controls (an unrelated Fc-fused recombinant protein and human serum albumin) for 1 h. Plates were rinsed with TBST and diluted lysate was applied to plates for 1 h. Following additional rinses, wells were treated with HRP-conjugated anti-FN3 domain antibody (PAB25) for 1 h and then assayed with POD (Roche catalog 11582950001).

Chain of human serum albumin (human) (P02768 25-609 limits assumed): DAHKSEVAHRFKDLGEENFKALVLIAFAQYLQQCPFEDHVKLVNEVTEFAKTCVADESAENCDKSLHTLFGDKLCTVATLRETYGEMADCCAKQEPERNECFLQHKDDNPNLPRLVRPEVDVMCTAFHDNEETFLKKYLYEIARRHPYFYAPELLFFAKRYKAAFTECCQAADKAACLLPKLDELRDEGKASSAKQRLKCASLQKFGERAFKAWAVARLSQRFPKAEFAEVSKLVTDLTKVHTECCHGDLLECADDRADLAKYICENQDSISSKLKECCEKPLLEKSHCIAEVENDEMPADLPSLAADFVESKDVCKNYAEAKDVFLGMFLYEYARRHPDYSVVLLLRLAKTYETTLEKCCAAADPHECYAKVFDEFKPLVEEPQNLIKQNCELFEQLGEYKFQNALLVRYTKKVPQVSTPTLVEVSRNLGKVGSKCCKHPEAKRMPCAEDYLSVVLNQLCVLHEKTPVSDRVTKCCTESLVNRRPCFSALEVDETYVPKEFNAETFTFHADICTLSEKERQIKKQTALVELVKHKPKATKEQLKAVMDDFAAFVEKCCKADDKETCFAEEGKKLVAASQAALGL
T1 sequence (Q9NZQ7 19-238, change not shown): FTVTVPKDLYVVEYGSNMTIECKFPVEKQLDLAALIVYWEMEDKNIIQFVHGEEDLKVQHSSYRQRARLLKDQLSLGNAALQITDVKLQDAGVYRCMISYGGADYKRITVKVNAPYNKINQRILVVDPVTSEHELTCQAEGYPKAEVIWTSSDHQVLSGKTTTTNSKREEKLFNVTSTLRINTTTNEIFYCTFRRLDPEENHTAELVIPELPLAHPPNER

Binder | ELISA HSA (RSU) [1] | ELISA Fc Control (RSU) [2] | ELISA PD-L1 Fc (RSU) [3]
ISOP121GR5P1G7 (designed binder, not shown: small tags and cut ends, FN3 domain; E. coli lysate in the ELISA) LPAPKNLVVSRVTEDSARLSWTAPDAAFDSFHIRYHEYDKNGEAIQLYVPGSERSYDLTGLKPGTEYGVYIHGVKGGGRSKPLWAHFTT | 800 RSU | 800 RSU | 368000 RSU
ISOP121AR5P1H2 (designed binder, not shown: small tags and cut ends, FN3 domain; E. coli lysate in the ELISA) LPAPKNLVVSRVTEDSARLSWVIDEFIPLFDSFLIQYQESEKVGEAIVLTVPGSERSYDLTGLKPGTEYTVSIYGVLAKNIGISNPLSAIFTT | 1120 RSU | 880 RSU | 927000 RSU
ISOP121BR5P1B5 (designed binder, not shown: small tags and cut ends, FN3 domain; E. coli lysate in the ELISA) LPAPKNLVVSRVTEDSARLSWRKQEQYFDSFLIQYQESEKVGEAIVLTVPGSERSYDLTGLKPGTEYTVSIYGVYQRGYHNWFSNPLSAIFTT | 400 RSU | 720 RSU | 1.48e+06 RSU
ISOP121BR5P1A2 (designed binder, not shown: small tags and cut ends, FN3 domain; E. coli lysate in the ELISA) LPAPKNLVVSRVTEDSARLSWRFSQEWFDSFLIQYQESEKVGEAIVLTVPGSERSYDLTGLKPGTEYTVSIYGVYARGIHKWLSNPLSAIFTT | 800 RSU | 720 RSU | 743000 RSU
ISOP121BR5P1C6 (designed binder, not shown: small tags and cut ends, FN3 domain; E. coli lysate in the ELISA) LPAPKNLVVSRVTEDSARLSWRKQEQYFDSFLIQYQESEKVGEAIVLTVPGSERSYDLTGLKPGTEYTVSIYGVYSRPKAEFTSNPLSAIFTT | 720 RSU | 720 RSU | 13400 RSU
ISOP121BR5P1E7 (designed binder, not shown: small tags and cut ends, FN3 domain; E. coli lysate in the ELISA) LPAPKNLVVSRVTEDSARLSWRKQEQYFDSFLIQYQESEKVGEAIVLTVPGSERSYDLTGLKPGTEYTVSIYGVKKWPSTTTTSNPLSAIFTT | 640 RSU | 800 RSU | 412000 RSU
ISOP121AR5P1A8 (designed binder, not shown: small tags and cut ends, FN3 domain; E. coli lysate in the ELISA) LPAPKNLVVSRVTEDSARLSWGLEWAYQFFDSFLIQYQESEKVGEAIVLTVPGSERSYDLTGLKPGTEYTVSIYGVYLRAIEFYSNPLSAIFTT | 1040 RSU | 560 RSU | 516000 RSU
ISOP121BR5P1C5 (designed binder, not shown: small tags and cut ends, FN3 domain; E. coli lysate in the ELISA) LPAPKNLVVSRVTEDSARLSWFRLRIVQTFDSFLIQYQESEKVGEAIVLTVPGSERSYDLTGLKPGTEYTVSIYGVITVVELLQQSNPLSAIFTT | 720 RSU | 400 RSU | 11700 RSU

More lines, now with the values ahead:

ELISA HSA (RSU) [1] | ELISA Fc Control (RSU) [2] | ELISA PD-L1 Fc (RSU) [3] | Binder
1200 RSU | 720 RSU | 2.82e+06 RSU | ISOP194GR9P1E9 (designed binder, not shown: small tags and cut ends, FN3 domain; E. coli lysate in the ELISA) LPAPKNLVVSRVTEDSARLSWTAPDAAFDSFHIRYHEYDKNGEAIQLYVPGSERSYDLTGLKPGTEYGVFIWGVKGGLKSKPLWAWFTT
640 RSU | 560 RSU | 431000 RSU | ISOP121FR5P1H8 (designed binder, not shown: small tags and cut ends, FN3 domain; E. coli lysate in the ELISA) LPAPKNLVVSRVTEDSARLSWTAPDAAFDSFVIYYSEQHFYGEAIVLTVPGSERSYDLTGLKPGTEYVVKIYGVKGGETSKPLSAIFTT
640 RSU | 720 RSU | 513000 RSU | ISOP121GR5P1D2 (designed binder, not shown: small tags and cut ends, FN3 domain; E. coli lysate in the ELISA) LPAPKNLVVSRVTEDSARLSWTAPDAAFDSFHILYQERAQSGEAIGLVVPGSERSYDLTGLKPATEYSVQIFGVKGGKLSNPLWAWFTT
640 RSU | 640 RSU | 577000 RSU | ISOP121GR5P1F10 (designed binder, not shown: small tags and cut ends, FN3 domain; E. coli lysate in the ELISA) LPAPKNLVVSRVTEDSARLSWTAPDAAFDSFFIDYVERATVGEAIALNVPGSKRSYALTGLKPGTEYFVKIRGVKGGLKSKPLWAWFTT
